Data on one substance can be found in patent US20230181718A1.

This assay has as its target Endo-H treated SApNPs. The assay is described as follows: BLI, Octet RED96; Endo-H treated against wildtype SApNPs. (BLI is a label-free optical method that tracks binding on a fibre tip over time.)

For VRC01 (antibody), the fold higher binding than the wildtype SApNPs was in the range of 2 to 3.5 fold.
